Where two headings read alike, the source gives them in different places.
Key:
[1] = molecular target: T1, human 5T4 (SPR and epitope mapping, construct not stated) (human, UniProt Q13641 32-355, limits assumed); assay: SPR, h5T4 binding; sample stressed in HST pH 6, 7 days 50 °C
T1 construct: also called h5T4
T1 sequence (looked up): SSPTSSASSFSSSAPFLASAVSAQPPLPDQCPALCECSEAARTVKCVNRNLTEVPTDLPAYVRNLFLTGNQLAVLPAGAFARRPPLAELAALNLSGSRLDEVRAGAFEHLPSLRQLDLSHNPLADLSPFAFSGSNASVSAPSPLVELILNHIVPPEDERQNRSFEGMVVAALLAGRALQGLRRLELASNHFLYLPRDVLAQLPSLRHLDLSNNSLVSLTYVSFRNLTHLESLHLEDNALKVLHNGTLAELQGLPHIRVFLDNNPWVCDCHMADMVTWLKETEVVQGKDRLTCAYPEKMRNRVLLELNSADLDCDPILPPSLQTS

[2] = molecular target: T2, human 5T4 on the cell surface (human, UniProt Q13641 32-420); assay: cell binding assay on 5T4-expressing tumor cells (cell line not given)
T2 construct: whole, on cells; also called h5T4; TPBG
T2 sequence (looked up): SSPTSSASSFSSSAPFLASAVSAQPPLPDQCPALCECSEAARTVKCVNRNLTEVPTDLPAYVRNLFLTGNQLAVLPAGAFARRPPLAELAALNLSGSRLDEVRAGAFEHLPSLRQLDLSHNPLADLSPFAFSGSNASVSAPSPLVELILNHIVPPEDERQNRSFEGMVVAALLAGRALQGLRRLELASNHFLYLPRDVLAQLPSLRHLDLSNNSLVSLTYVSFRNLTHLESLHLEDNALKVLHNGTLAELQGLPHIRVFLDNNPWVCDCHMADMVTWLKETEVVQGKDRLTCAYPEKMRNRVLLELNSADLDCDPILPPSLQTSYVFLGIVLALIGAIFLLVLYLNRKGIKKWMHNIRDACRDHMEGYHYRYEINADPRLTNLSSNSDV

[3] = molecular target: T2, human 5T4 on the cell surface; assay: flow cytometry on KYSE-30 cells (61,000 5T4/cell), fold over background
Experimental: (§1) The KYSE-30 and H292 human cancer cell lines, derived from esophageal squamous cell carcinoma and non-small cell lung carcinoma, respectively, were used. […] After incubation, binding patterns of the TriNKET® and mAb to 5T4+ cells were detected using a fluorophore conjugated anti-human IgG secondary antibody. Cells were analyzed by flow cytometry and fold MFI over secondary-only controls reported.

[4] = molecular target: T1, human 5T4 (SPR and epitope mapping, …); assay: SPR, h5T4 binding; sample stressed in Tris pH 9, 7 days 40 °C
[5] = molecular target: T2, human 5T4 on the cell surface; assay: flow cytometry on HT29 cells (5,000 5T4 per cell)
[6] = molecular target: T2, human 5T4 on the cell surface; assay: cell-based or functional assay
[7] = molecular target: T2, human 5T4 on the cell surface; assay: flow cytometry on primary lung cancer-associated fibroblasts (Donor #377913A1), fold over background
[8] = molecular target: T2, human 5T4 on the cell surface; assay: cell-based or functional assay; remark: listed apart in the source
[9] = molecular target: T2, human 5T4 on the cell surface; assay: flow cytometry on H292 cells (11,000 5T4/cell), fold over background
Experimental: as §1

[10] = molecular target: T1, human 5T4 (SPR and epitope mapping, …); assay: SPR, h5T4 binding; sample stressed in acetate pH 4, 7 days 40 °C
[11] = molecular target: T2, human 5T4 on the cell surface; assay: cell binding assay on 5T4-expressing tumor cells (cell line not given); remark: listed apart in the source
[12] = molecular target: T2, human 5T4 on the cell surface; assay: flow cytometry on H1975 cells (22,000 5T4 per cell)
[13] = molecular target: T2, human 5T4 on the cell surface; assay: flow cytometry on H292 cells (12,000 5T4 per cell)
[14] = molecular target: T2, human 5T4 on the cell surface; assay: flow cytometry on Detroit 562 cells (21,000 5T4 per cell)
[15] = molecular target: T1, human 5T4 (SPR and epitope mapping, …); assay: SPR, kinetics fit
[16] = molecular target: T3, human NKG2D (recombinant, construct not stated) (human, UniProt P26718 78-216, limits assumed); assay: SPR, kinetics fit
T3 construct: also called hNKG2D
T3 sequence (looked up): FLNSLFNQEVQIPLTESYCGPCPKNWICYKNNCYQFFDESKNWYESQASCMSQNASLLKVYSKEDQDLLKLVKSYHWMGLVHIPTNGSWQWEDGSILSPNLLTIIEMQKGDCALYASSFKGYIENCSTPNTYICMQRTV

Human CD16aV = molecular target: T4, Human CD16aV (human, UniProt P08637 17-208); assay: SPR, kinetics fit
T4 construct: position 158 counts on the mature protein
T4 sequence (P08637 17-208 F176V): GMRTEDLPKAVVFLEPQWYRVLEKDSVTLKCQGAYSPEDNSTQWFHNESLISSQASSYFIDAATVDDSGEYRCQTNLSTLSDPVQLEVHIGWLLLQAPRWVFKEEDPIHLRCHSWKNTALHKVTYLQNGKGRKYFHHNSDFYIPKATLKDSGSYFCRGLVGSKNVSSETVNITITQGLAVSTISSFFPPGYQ

Kd [1]: 7.6 nM
koff [1]: 0.00088 s⁻¹
kon [1]: 110000 M⁻¹ s⁻¹
EC50 [2]: 5.33 nM
Max Fold Over Background (FOB) [2]: 85 fold over background
EC50 (read off the curve) [3]: ~2 nM
koff [4]: 0.0016 s⁻¹
kon [4]: 110000 M⁻¹ s⁻¹
EC50 [5]: 4.1 nM
cynomolgus monkey NK cell activation in co-culture with H292 cells, EC50 [6]: 0.06 nM
cynomolgus monkey NK cell activation in co-culture with KYSE-30 cells, EC50 [6]: 0.06 nM
human NK cell activation in co-culture with H292 cells, EC50 [6]: 0.35 nM
human NK cell activation in co-culture with KYSE-30 cells, EC50 [6]: 0.13 nM
EC50 (read off the curve) [7]: ~4 nM
NK cell-mediated lysis of 786-O cells (DELFIA), EC50 [8]: 0.19 nM
NK cell-mediated lysis of BT474 cells (DELFIA), EC50 [8]: 0.14 nM
NK cell-mediated lysis of Detroit 562 cells (DELFIA), EC50 [8]: 0.23 nM
NK cell-mediated lysis of FaDu cells (DELFIA), EC50 [8]: 0.19 nM
NK cell-mediated lysis of H292 cells (DELFIA), EC50 [8]: 0.1 nM
NK cell-mediated lysis of H1703 cells (DELFIA), EC50 [8]: 0.14 nM
NK cell-mediated lysis of H1975 cells (DELFIA), EC50 [8]: 0.29 nM
NK cell-mediated lysis of HCC4006 cells (DELFIA), EC50 [8]: 0.24 nM
NK cell-mediated lysis of HCT116 cells (DELFIA), EC50 [8]: 0.097 nM
NK cell-mediated lysis of HT29 cells (DELFIA), EC50 [8]: 0.42 nM
NK cell-mediated lysis of KYSE-30 cells (DELFIA), EC50 [8]: 0.072 nM
EC50 (read off the curve) [9]: ~3 nM
Kd [10]: 7.6 nM
koff [10]: 0.00091 s⁻¹
kon [10]: 120000 M⁻¹ s⁻¹
EC50 [11]: 3.42 nM
Max Fold Over Background (FOB) [11]: 82.8 fold over background
EC50 [12]: 1.9 nM
EC50 [13]: 1.5 nM
EC50 [14]: 2.7 nM
Kd [15]: 6.1 nM
koff [15]: 0.00077 s⁻¹
kon [15]: 130000 M⁻¹ s⁻¹
Kd [16]: 370 nM
koff [16]: 0.088 s⁻¹
kon [16]: 240000 M⁻¹ s⁻¹
Kd (Human CD16aV): 112 nM
koff (Human CD16aV): 0.017 s⁻¹
kon (Human CD16aV): 150000 M⁻¹ s⁻¹
B1: AB1310/AB1783-TriNKET® (bispecific antibody, human IgG1, kappa)
chain: DIQLTQSPSSLSASVGDRVTITCRASQSVTTSNYNYMHWFQQKPGKAPKLLIKFASNLESGVPSRFSGSGSGTDFTLTISSLQPEDFATYYCQHSWEIPWTFGCGTKVEIKGGGGSGGGGSGGGGSGGGGSEVQLVESGGGLVKPGGSLRLSCAASRFTFSDFGMHWVRQAPGKCLEWVSYISSGSSTIYYADSVKGRFTISRDNAKNSLYLQMNSLRAEDTAVYYCASSQSYYRGTLDYWGQGTTVTVSSASDKTHTCPPCPAPELLGGPSVFLFPPKPKDTLMISRTPEVTCVVVDVSHEDPEVKFNWYVDGVEVHNAKTKPREEQYNSTYRVVSVLTVLHQDWLNGKEYKCKVSNKALPAPIEKTISKAKGQPREPRVYTLPPCRDELTKNQVSLTCLVKGFYPSDIAVEWESNGQPENNYKTTPPVLVSDGSFTLYSKLTVDKSRWQQGNVFSCSVMHEALHNHYTQKSLSLSPG
heavy: EVQLVESGGGLVKPGGSLRLSCAASGFTFSSYSMNWVRQAPGKGLEWVSSISSSSSYIYYADSVKGRFTISRDNAKNSLYLQMNSLRAEDTAVYYCARGAPIGAAAGWFDPWGQGTLVTVSSASTKGPSVFPLAPSSKSTSGGTAALGCLVKDYFPEPVTVSWNSGALTSGVHTFPAVLQSSGLYSLSSVVTVPSSSLGTQTYICNVNHKPSNTKVDKKVEPKSCDKTHTCPPCPAPELLGGPSVFLFPPKPKDTLMISRTPEVTCVVVDVSHEDPEVKFNWYVDGVEVHNAKTKPREEQYNSTYRVVSVLTVLHQDWLNGKEYKCKVSNKALPAPIEKTISKAKGQPREPQVCTLPPSRDELTENQVSLTCLVKGFYPSDIAVEWESNGQPENNYKTTPPVLDSDGSFFLYSWLTVDKSRWQQGNVFSCSVMHEALHNHYTQKSLSLSPG
light: DIQMTQSPSSVSASVGDRVTITCRASQGISSWLAWYQQKPGKAPKLLIYAASSLQSGVPSRFSGSGSGTDFTLTISSLQPEDFATYYCQQGVSFPRTFGGGTKVEIKRTVAAPSVFIFPPSDEQLKSGTASVVCLLNNFYPREAKVQWKVDNALQSGNSQESVTEQDSKDSTYSLSSTLTLSKADYEKHKVYACEVTHQGLSSPVTKSFNRGEC
notes: also called AB1310-TriNKET®; AB1783 10F10 F3′ LH H(T62S) CHO opt
